The values below come from the RNAGym collection of RNA variant scans (doi:10.7554/elife.80360).

The labels stand for the following.
B1: CPEB3 Ribozyme (parent)
chain: GGGGGCCACAGCAGAAGCGUUCACGUCGCGGCCCCUGUCAGAUUCUGGUGAAUCUGCGAAUUCUGCUGU

The data set covers variants of B1. The experiment in a line: self-cleavage, relative activity (ratio to wild type); higher = more cleavage; co-transcriptional.
Turning to C35U G50U, the self-cleavage is 0.94.

For the variant U38G A60C, the self-cleavage turned out to be 0.137.

As to U36G U53G, the self-cleavage is 0.214.

Consider U36G U53A, for which the self-cleavage came out at 0.273.

Turning to U38A U46A, the self-cleavage came out at 0.941.

With U38A U46C, the self-cleavage was determined as 0.954.

On to U36G G56C, for which the self-cleavage amounted to 0.284.

For U36C U62C, the self-cleavage turned out to be 0.528.

Consider U38A U43A, for which the self-cleavage worked out at 0.784.

As for G37C U64A, the self-cleavage stood at 0.267.

In the case of G37C U64C, the self-cleavage was 0.162.

Consider U36A U62C, for which the self-cleavage was determined as 0.314.

Take U36G U49G: the self-cleavage turned out to be 0.197.

As for U36G U49A, the self-cleavage worked out at 0.237.

In the case of C39A C45G, the self-cleavage turned out to be 0.659.

U38A U62G: the self-cleavage was determined as 0.742.

As to U38C G50U, the self-cleavage came to 0.952.

Turning to G37C G56C, the self-cleavage worked out at 0.223.

On to G37C U62C, for which the self-cleavage was 0.276.

Consider U38C U53A, for which the self-cleavage is 0.883.

Take U38C U53G: the self-cleavage was 0.682.

Turning to U38C U53C, the self-cleavage stood at 0.763.

As for U38C U49A, the self-cleavage amounted to 0.955.

Take U36A U53C: the self-cleavage is 0.181.

With U36A G50U, the self-cleavage is 0.232.

In the case of U36A G56A, the self-cleavage stood at 0.231.

With U38A C57G, the self-cleavage is 0.297.

Consider U36C U61G, for which the self-cleavage is 0.601.

Take G37U U43G: the self-cleavage was 0.298.

In the case of G37A A42G, the self-cleavage was 0.189.

For U38G G47C, the self-cleavage was found to be 0.201.

Turning to G37U U64G, the self-cleavage is 0.227.

As to G37U A60C, the self-cleavage was determined as 0.224.

Consider G37U A60G, for which the self-cleavage was found to be 0.208.

Regarding G37U A60U, the self-cleavage amounted to 0.195.

G37U C57G: the self-cleavage came to 0.209.

For the variant C35U U49A, the self-cleavage was 0.969.

As to U36C U67C, the self-cleavage turned out to be 0.981.

Regarding U36C U67A, the self-cleavage came to 0.926.

Take G37U U61A: the self-cleavage was 0.263.

Regarding U36G C45U, the self-cleavage is 0.232.

With U36G A60C, the self-cleavage worked out at 0.206.

On to U36G A60G, for which the self-cleavage worked out at 0.209.

In the case of G37A G56A, the self-cleavage worked out at 0.249.

For G37A G56U, the self-cleavage worked out at 0.257.

Consider U38G A59U, for which the self-cleavage was 0.228.

U36G G50C: the self-cleavage turned out to be 0.231.

On to U36G G50A, for which the self-cleavage came to 0.214.

As to U36G U44C, the self-cleavage is 0.118.

U36A G65A: the self-cleavage is 0.278.

Turning to U38A U64G, the self-cleavage turned out to be 0.858.

With U38A U64A, the self-cleavage came to 0.799.

In the case of G37A G68C, the self-cleavage is 0.371.

As for U36C C45U, the self-cleavage is 0.926.

Turning to C35U U62C, the self-cleavage was determined as 0.752.

As for G37A A60U, the self-cleavage worked out at 0.193.

Regarding G37A A60C, the self-cleavage worked out at 0.274.

As to U36C U46G, the self-cleavage came to 0.93.

U36G G68C: the self-cleavage worked out at 0.436.

As to U36G G68U, the self-cleavage is 0.338.

For U36G G68A, the self-cleavage turned out to be 0.214.

Turning to U38G G65C, the self-cleavage was found to be 0.161.

U36G G48U: the self-cleavage was 0.196.

Take U38A A60U: the self-cleavage is 0.453.

In the case of G37C U49A, the self-cleavage turned out to be 0.307.

Consider G37U U44C, for which the self-cleavage worked out at 0.188.

Regarding C39A A51U, the self-cleavage was determined as 0.728.

Consider G37C A51G, for which the self-cleavage was found to be 0.205.

Take U38C U67G: the self-cleavage was 0.925.

As for U38G C63G, the self-cleavage was 0.224.

U38G C63U: the self-cleavage is 0.229.

In the case of U38C U43G, the self-cleavage was determined as 0.866.

For the variant G37A U61C, the self-cleavage turned out to be 0.149.

G37A U61G: the self-cleavage is 0.221.

On to G37U G41U, for which the self-cleavage came out at 0.201.

U36C G50A: the self-cleavage came out at 0.948.

As for U36C G50U, the self-cleavage turned out to be 0.893.

Regarding U38C A60U, the self-cleavage worked out at 0.331.

Take U38A G58C: the self-cleavage is 0.921.

In the case of U38A G41A, the self-cleavage was 0.718.

As for U38A G41U, the self-cleavage amounted to 0.795.

In the case of U38A C39A, the self-cleavage was 0.748.

For the variant U38A C39G, the self-cleavage is 0.994.

G37C G41A: the self-cleavage is 0.245.

On to G37C G41C, for which the self-cleavage is 0.126.

With U36A C63A, the self-cleavage was found to be 0.245.

Turning to U36G G58U, the self-cleavage was 0.193.

As to U38G G58U, the self-cleavage amounted to 0.294.

On to U38G C45G, for which the self-cleavage stood at 0.27.

Consider U36C G65U, for which the self-cleavage came to 0.485.

U36G U55G: the self-cleavage was determined as 0.245.

For the variant U36G U55C, the self-cleavage was 0.177.

As to C35U U61C, the self-cleavage is 0.625.

For the variant C35U U43G, the self-cleavage was 0.753.

As for U38G U53A, the self-cleavage amounted to 0.287.

U38G U53C: the self-cleavage came to 0.24.

For U38G U53G, the self-cleavage worked out at 0.255.

Consider U38G C54U, for which the self-cleavage was determined as 0.29.

In the case of U38G C54G, the self-cleavage was found to be 0.302.

U38C G41U: the self-cleavage came out at 0.705.

Consider C35U G65C, for which the self-cleavage stood at 0.568.

Take U36C G58A: the self-cleavage came to 0.731.

On to U36C G58C, for which the self-cleavage amounted to 0.834.

In the case of C39A C66G, the self-cleavage came out at 0.535.

Consider C35U U64G, for which the self-cleavage worked out at 0.874.

With G37U U53A, the self-cleavage amounted to 0.195.

Take G37C A52U: the self-cleavage was 0.254.

With G37A U64C, the self-cleavage amounted to 0.312.

As for G37C U44G, the self-cleavage was determined as 0.211.

With G37C U44A, the self-cleavage came to 0.27.

U38C U44G: the self-cleavage stood at 0.851.

As for G37U G47A, the self-cleavage turned out to be 0.324.

Take U38G U61G: the self-cleavage worked out at 0.436.

Consider U38G U61C, for which the self-cleavage was found to be 0.289.

With U38G U61A, the self-cleavage was determined as 0.267.

On to C35U U44G, for which the self-cleavage came out at 0.835.

Turning to G37U C39A, the self-cleavage was determined as 0.273.

Consider G37U C39G, for which the self-cleavage is 0.214.

For the variant U36C C57U, the self-cleavage turned out to be 0.277.

Regarding U38G U62G, the self-cleavage is 0.183.

Take U38G U62A: the self-cleavage came out at 0.291.

G37A A52C: the self-cleavage worked out at 0.282.

Take U38A A52C: the self-cleavage turned out to be 0.898.

For U36A C39U, the self-cleavage turned out to be 0.237.

As for U36A C39G, the self-cleavage worked out at 0.15.

With U38G U44A, the self-cleavage came out at 0.149.

U38G C39U: the self-cleavage was determined as 0.322.

Turning to U38G C39G, the self-cleavage worked out at 1.01.

With U38G G41A, the self-cleavage came out at 0.245.

For the variant U38G G41U, the self-cleavage is 0.238.

Consider U38C C57A, for which the self-cleavage was found to be 0.3.

Regarding U38C C57U, the self-cleavage came to 0.409.

U38A U69C: the self-cleavage turned out to be 1.03.

On to U38A U69G, for which the self-cleavage is 0.971.

G37A C39G: the self-cleavage came to 0.277.

In the case of G37C G65C, the self-cleavage was determined as 0.255.

On to U38G, for which the self-cleavage was 0.242.

For U38C, the self-cleavage was 0.961.

Take U38A: the self-cleavage worked out at 0.929.

As to U38A A51C, the self-cleavage was found to be 0.908.

U38A A51G: the self-cleavage stood at 0.89.

On to U36A U44G, for which the self-cleavage was 0.21.

For the variant U36A U44A, the self-cleavage was 0.177.

In the case of U38C U62A, the self-cleavage stood at 0.791.

Regarding U36C C66U, the self-cleavage was found to be 0.891.

U36G U67G: the self-cleavage worked out at 0.252.

In the case of U38C C45G, the self-cleavage was 0.92.

With U36G C54G, the self-cleavage was found to be 0.137.

As to U36G C54A, the self-cleavage is 0.186.

With G37C U53C, the self-cleavage was determined as 0.284.

Turning to G37C U53G, the self-cleavage stood at 0.129.

As to G37U G65C, the self-cleavage was determined as 0.228.

In the case of U36C U69A, the self-cleavage was 0.996.

For the variant C39A A59U, the self-cleavage turned out to be 0.446.

Turning to C39A A59G, the self-cleavage was 0.911.

As to U36A U61A, the self-cleavage amounted to 0.137.

Turning to U36A U61G, the self-cleavage is 0.147.

As for U36C U55C, the self-cleavage was 0.74.

For U36C U55G, the self-cleavage was determined as 0.454.

Regarding U36C U55A, the self-cleavage is 0.888.

Consider G37A U67G, for which the self-cleavage is 0.334.

As to G37A U67C, the self-cleavage is 0.321.

For G37C C54G, the self-cleavage came out at 0.164.

With G37C A42C, the self-cleavage came out at 0.237.

As for G37C A42G, the self-cleavage came to 0.213.

For the variant G37A U44A, the self-cleavage came out at 0.277.

With U38G A52U, the self-cleavage came out at 0.156.
